This is an account of results in publication PMC6761861 (Chemical Science, 2019).

Where two headings read alike, the source gives them in different places. No end group written: not given here.

Experiment [1] deals with TMD5 (coumarin-labelled) (Epstein-Barr virus, UniProt P03230). Kind of experiment: FRET assay. Type of experiment: binding.
For experiment [2], the system named is TMD5/TMD5 interaction (TMD5–ToxR). Put plainly: Dominant-negative ToxR assay in bacterial membranes. The settings on record: co-expressed as ToxR* fusion with TMD5–ToxR in E. coli FHK12; result in words. Type of experiment: cell-based, Epstein–Barr virus.
Experiment [3] has as its system NF-κB activity (LMP-1) in EBV positive B721 cells. As to conditions: read-out: IC50, inhibition of B721 cell NF-κB activity; cited from earlier work.
In experiment [4] the target is coumarin-labelled LMP-1 transmembrane domain 5 (TMD5) peptide (Epstein-Barr virus). Kind of experiment: other fluorescence titration.
The target is the same in experiment [5]. Put plainly: FRET or BRET. For orientation: BRET reads energy transfer from a luciferase to a nearby fluorophore.
For experiment [6] the target is unchanged. Kind of experiment: FRET or BRET. The source holds these as a separate data set.

“KKKKWWKLWYFLVWFLDLIILILLLWWKKKK [anti-TMD5]” yielded a Kd in experiment [1] of 0.04 ± 0.0067 µM. “KKKK-VFLWLWLIWIFIDWKLWLLYWLL-KKKK [anti-TMD5 scramble]”: the “quenching of TMD5-coumarin fluorescence and FRET signal compared to anti-TMD5” value in experiment [1] (1.0 mM C14 betaine micelles, 20 mM HEPES, pH 7.4, result in words) was “much less quenching of TMD5-coumarin fluorescence and weaker FRET signal from FITC emission”. Moreover, in experiment [2], the “effect on TMD5 Miller unit” value is “did not inhibit the TMD5 Miller unit”.

For the molecule `N=C(N)c1ccc(C=Cc2ccc(C(=N)N)cc2O)cc1` [NSC259242], the IC50 in experiment [3] was 29.6 ± 6.6 µM. In experiment [4], WWKLWYFLVWFLDLIILILLLWW (designed binder) [anti-TMD5 peptide (unlabelled)] returned an EC50 of 3.3 µM. Take WWKLWYFLVWFLDLIILILLLWW (designed binder, also: FITC label, position not given here) [FITC-tagged anti-TMD5 peptide]: the Kd stood at 40 µM in experiment [5] and 0.0678 µM in experiment [6]. For the same molecule, the figures for the stoichiometry N in experiment [5] and in experiment [6] were 0.44 and 0.53, respectively.

What is called Kd is the free concentration of one partner at which half of the binding sites on the other are occupied at equilibrium, for simple one-to-one binding. The term IC50 denotes the concentration that gives 50% inhibition. The term EC50 denotes the concentration at which the effect is half-maximal. The term stoichiometry N denotes the number of molecules, sites or subunits per partner or assembly.
